Measured values as given in patent publication US20260184815A1 (published 2026).

Target: T1, human plasma kallikrein (human, UniProt P03952 20-390; P03952 391-638)
T1 construct: also called pKal; Human pKal
Experiment: ELISA, biotinylated pKal signal over streptavidin background
Source text: Abbreviations used: “T/B” is the ELISA signal obtained using of the “target” (biotinylated plasma kallikrein) divided by the ELISA signal of the “background” (streptavidin); both of which were coated on microtiter plates, “nd” is not determined. The symbol “q” refers to the amber suppressible stop codon (TAG), which is translated as glutamine (Q) in strains of E. coli such as the TG1 cells that were used to express the Fab fragments.

T1 sequence (P03952 20-390, chain 1 of 2): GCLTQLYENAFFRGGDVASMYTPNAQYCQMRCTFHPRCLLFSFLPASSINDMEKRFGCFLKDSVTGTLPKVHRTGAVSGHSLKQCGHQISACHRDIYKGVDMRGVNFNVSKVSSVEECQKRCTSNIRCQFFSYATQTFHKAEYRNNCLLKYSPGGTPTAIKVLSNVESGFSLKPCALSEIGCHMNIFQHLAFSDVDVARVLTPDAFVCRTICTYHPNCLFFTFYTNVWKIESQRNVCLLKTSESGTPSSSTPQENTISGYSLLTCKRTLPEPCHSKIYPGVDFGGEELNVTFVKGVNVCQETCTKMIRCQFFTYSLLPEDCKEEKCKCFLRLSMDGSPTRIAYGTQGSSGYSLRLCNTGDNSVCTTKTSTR
T1 sequence (P03952 391-638, chain 2 of 2): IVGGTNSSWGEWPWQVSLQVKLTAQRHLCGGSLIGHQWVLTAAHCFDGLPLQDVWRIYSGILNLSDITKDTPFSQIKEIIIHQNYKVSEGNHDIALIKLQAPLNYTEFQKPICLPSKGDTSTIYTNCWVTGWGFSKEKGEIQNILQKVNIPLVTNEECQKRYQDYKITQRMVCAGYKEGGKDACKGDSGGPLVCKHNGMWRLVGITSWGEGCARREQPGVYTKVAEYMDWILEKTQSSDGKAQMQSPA

Binder	ELISA (T/B)
M6-D09 (Fab, V domains shown, HC as printed runs into CH1; also called M06-D09; 559A-M0006-D09) VH: EVQLLESGGGLVQPGGSLRLSCAASGFTFSFYYMVWVRQAPGKGLEWVSVIYPSGGITVYADSVKGRFTISRDNSKNTLYLQMNSLRAEDTAVYYCARDKWAVMPPYYYYAMDVWGQGTTVTVSS VL: DIQMTQSPSSLSASVGDRVTITCRASQSIRNYLNWYQQKPGKAPNLLIYAASTLQSGVPARFSGSGSGTDFTLTISSLQPEDFATYYCQQLSGYPHTFGQGTKLEIK	39.9 T/B
M28-A01 (Fab, V domains shown, HC as printed runs into CH1) VH: EVQLLESGGGLVQPGGSLRLSCAASGFTFSWYAMHWVRQAPGKGLEWVSGIYSSGGYTKYADSVKGRFTISRDNSKNTLYLQMNSLRAEDTAVYYCARDLSNGDDVFDIWGQGTMVTVSS VL: not shown	19 T/B
M29-C07 (Fab, V domains shown, HC as printed runs into CH1) VH: EVQLLESGGGLVQPGGSLRLSCAASGFTFSGYDMMWVRQAPGKGLEWVSVISSSGGNTAYADSVKGRFTISRDNSKNTLYLQMNSLRAEDTAVYYCARESSGLYYFDYWGQGTLVTVSS VL: not shown	5.2 T/B
M28-E11 (Fab, V domains shown, HC as printed runs into CH1) VH: EVQLLESGGGLVQPGGSLRLSCAASGFTFSLYDMTWVRQAPGKGLEWVSGISSSGGVTIYADSVKGRFTISRDNSKNTLYLQMNSLRAEDTAVYYCARTYYYDSSGYADAFDIWGQGTMVTVSS VL: DIQMTQSPSSVSASVGDRVTINCRASQDISNWLAWYQQKPGKAPNLLIYAASSLQTGAPSRFSGSGSGTDFTLTISSLQPEDFGTYVCQQSYSLPWTFGLGTKVEVR	29.3 T/B
M76-G02 (Fab, V domains shown, HC as printed runs into CH1) VH: EVQLLESGGGLVQPGGSLRLSCAASGFTFSLYAMWWVRQAPGKGLEWVSYISSSGGFTSYADSVKGRFTISRDNSKNTLYLQMNSLRAEDTAVYYCARYRVGVAATDYWGQGTLVTVSS VL: not shown	10.3 T/B
M74-A07 (Fab, V domains shown, HC as printed runs into CH1) VH: EVQLLESGGGLVQPGGSLRLSCAASGFTFSQYLMMWVRQAPGKGLEWVSSIYPSGGYTSYADSVKGRFTISRDNSKNTLYLQMNSLRAEDTAVYYCARVSTAVADNDYWGQGTLVTVSS VL: DIQMTQSPSSLSASVRDRVTITCRTSQNINTYLNWYYQAPGRAPKLLIFGVSSLHRGVSSRFSGSGDGTEFTLTISSLQPEDIGTYFCQQSYSSPWTFGQGTKVEIK	8.6 T/B
M29-G10 (Fab, V domains shown, HC as printed runs into CH1) VH: EVQLLESGGGLVQPGGSLRLSCAASGFTFSFYKMIWVRQAPGKGLEWVSSISSSGGSTQYADSVKGRFTISRDNSKNTLYLQMNSLRAEDTAVYYCARDRVDLGYLDYWGQGTLVTVSS VL: DIQMTQSPSSLSSSVGDSATITCRASQSISIYLNWYQQKPGKAPKILIYGASQLESGVPSRFSGSGSGTDFTLTVSGLQPEDFATYWCQQSYNVPYTFGQGTKLEIK	16.4 T/B
M29-E02 (Fab, V domains shown, HC as printed runs into CH1) VH: EVQLLESGGGLVQPGGSLRLSCAASGFTFSRYPMMWVRQAPGKGLEWVSVIYPSGGDTFYADSVKGRFTISRDNSKNTLYLQMNSLRAEDTAVYYCASGDDYLWEAAVYWGQGTLVTVSS VL: QSVLTQPPSVSEAPRQRVTISCSGSSSNIGNNAVSWYQQLPGKAPKLLIYYDDLLPSGVSDRFSGSKSGTSASLAISGLRSEDEADYYCAAWDDSLNGFVFGTGTKVTVL	2 T/B
M77-H04 (Fab, V domains shown, HC as printed runs into CH1) VH: EVQLLESGGGLVQPGGSLRLSCAASGFTFSYYTMIWVRQAPGKGLEWVSGIRSSGGGTRYADSVKGRFTISRDNSKNTLYLQMNSLRAEDTAVYYCAKDGSRYSYGSIYYYYGMDAWGQGTTVTVSS VL: not shown	7.6 T/B
M28-C03 (Fab, V domains shown, HC as printed runs into CH1) VH: EVQLLESGGGLVQPGGSLRLSCAASGFTFSYYQMGWVRQAPGKGLEWVSSIYPSGGMTDYADSVKGRFTISRDNSKNTLYLQMNSLRAEDTAVYYCTRGSPWGDDAFDIWGQGTMVTVSS VL: DIQMTQSPSSLSASVGDRVTITCRASQSINFYLNWYQQKPGKAPKLLIYVASSLESGVPSRFSGSASGTEFTLTISSLQPEDFATYYCLQSYSAPYTFGQGTKVEIT	2.2 T/B
M27-G09 (Fab, V domains shown, HC as printed runs into CH1) VH: EVQLLESGGGLVQPGGSLRLSCAASGFTFSEYDMAWVRQAPGKGLEWVSYIVSSGGFTSYADSVKGRFTISRDNSKNTLYLQMNSLRAEDTAVYYCTTWAGWIAAADYWGQGTLVTVSS VL: DIQMTQSPSSVSASVGDRITITCRTRQSISNYLNWYQQKPGEPPKLLIFAASSLQSGVPSRFSGSGTGTEFTLTISSLQPEDLAIYYCQQSYDIPFTFGQGTKLEIK	2.2 T/B
M29-D10 (Fab, V domains shown, HC as printed runs into CH1) VH: EVQLLESGGGLVQPGGSLRLSCAASGFTFSWYPMYWVRQAPGKGLEWVSSIGSSGGPTPYADSVKGRFTISRDNSKNTLYLQMNSLRAEDTAVYYCARWADYGGSLDYWGQGTLVTVSS VL: DIQMTQSPSSLSASVGDTVSITCRASQSITIYLNWYQHKPGKAPNLLIYGASNLHSGVPSRFSGSGSGTDFTLTISSLQPEDFATYYCQQSYDTPLTFGGGTKVEIK	23.6 T/B
M27-H10 (Fab, V domains shown, HC as printed runs into CH1) VH: EVQLLESGGGLVQPGGSLRLSCAASGFTFSAYQMAWVRQAPGKGLEWVSVIYSSGGYTDYADSVKGRFTISRDNSKNTLYLQMNSLRAEDTAVYYCARHNWNDGAFDIWGQGTMVTVSS VL: DIQMTQSPSSLSASVGDRVTITCRASQSISNYLNWYQQKPGKAPKFLIYAASSLQSGVPSRFSGSGSGTDFTLSISSLQPEDFATYYCQQSYSTPQTFGQGTKVEMK	12.4 T/B
M76-G06 (Fab, V domains shown, HC as printed runs into CH1) VH: EVQLLESGGGLVQPGGSLRLSCAASGFTFSGYIMHWVRQAPGKGLEWVSWIYPSGGWTEYADSVKGRFTISRDNSKNTLYLQMNSLRAEDTAVYYCARDAPGVGAIDYWGQGTLVTVSS VL: DIQMTQSPSSLSASVRDRVTITCRASQSISTYLNWYQQKPGEAPKLLVFAASSLQSGVPSRFSGSGSGTDFTLSISSLQPEDFATYYCQQSYSTPHTFGQGAKVEIK	11.8 T/B
M28-E01 (Fab, V domains shown, HC as printed runs into CH1) VH: EVQLLESGGGLVQPGGSLRLSCAASGFTFSSYPMGWVRQAPGKGLEWVSRISSSGGMTIYADSVKGRFTISRDNSKNTLYLQMNSLRAEDTAVYYCARDDWNVGMDVWGQGTTVTVSS VL: DIQMTQSPSSLSASVGDRVTITCRASQSISSYLNWYQQKPGKAPKLLIYAASSLQSGVPSKFSGSGSGTDYTLTISSLQPEDFATYYCQQTYTTPWTFGQGTKVEIK	41 T/B
M28-F01 (Fab, V domains shown, HC as printed runs into CH1) VH: EVQLLESGGGLVQPGGSLRLSCAASGFTFSVYLMHWVRQAPGKGLEWVSGISPSGGYTQYADSVKGRFTISRDNSKNTLYLQMNSLRAEDTAVYYCARPGGLDAFDIWGQGTMVTVSS VL: DIQMTQSPSSLSASVGDRVTITCRASQSINTYLNWYQQKPGKAPKVLIHAASTLESGVPSRFSGSGSGTDFTLTISSLQPEDFATYYCQQSYSTPPTFGQGTKVEIK	1.5 T/B
M77-C07 (Fab, V domains shown, HC as printed runs into CH1) VH: EVQLLESGGGLVQPGGSLRLSCAASGFTFSLYIMGWVRQAPGKGLEWVSGIYPSGGFTMYADSVKGRFTISRDNSKNTLYLQMNSLRAEDTAVYYCARESSGVAAPDYWGQGTLVTVSS VL: DIQMTQSPSTLSASVGDRVTITCRASQNISSYLNWYQQKPGKAPKLLIYAASSLQSGVPSRFSGSGSGTDFTLTISSLQPEDFATYSCQQSYSTPRTFGQGTKVEIK	16.1 T/B
M28-D12 (Fab, V domains shown, HC as printed runs into CH1) VH: EVQLLESGGGLVQPGGSLRLSCAASGFTFSWYTMHWVRQAPGKGLEWVSVIYPSGGPTSYADSVKGRFTISRDNSKNTLYLQMNSLRAEDTATYYCARDGSGSYLGFDYWGQGTLVTVSS VL: DIQMTQSPSSLSASVGDRVTITCRASQSIATYLNWYQQKPGRAPKLLIYAASSLQSGVPSRFVGGGSGSGTHFTLTISSLQPEDFATYYCQQSYSTRETFGQGTKVEIK	41.6 T/B
M29-G08 (Fab, V domains shown, HC as printed runs into CH1) VH: EVQLLESGGGLVQPGGSLRLSCAASGFTFSYYHMWWVRQAPGKGLEWVSGISPSGGFTFYADSVKGRFTISRDNSKNTLYLQMNSLRAEDTAVYYCARDYYYDSSGYSPLGYWGQGTLVTVSS VL: DIQMTQSPATLSASPGETVTLSCRASQNIGNDVAWYRQRPGQAPRLLIHHASTRAYGIPARLRGSGSATEFTLTITSLEPEDFAIYYCQQFYDWPAHTFALGTRLEIKR	40.4 T/B
M76-H02 (Fab, V domains shown, HC as printed runs into CH1) VH: EVQLLESGGGLVQPGGSLRLSCAASGFTFSMYWMQWVRQAPGKGLEWVSYIYPSGGPTKYADSVKGRFTISRDNSKNTLYLQMNSLRAEDTAVYYCARPSGSYGDAFDIWGQGTMVTVSS VL: DIQMTQSPSSLSASEGDRVTITCRASQDISVYLNWYQMKSGKAPKLLIYGGASLQSGVPARFSGSGYGTDFTLTITDLRPEDFATYYCQQSYSLPFTFGGGTKVEIK	13.4 T/B
M76-F02 (Fab, V domains shown, HC as printed runs into CH1) VH: EVQLLESGGGLVQPGGSLRLSCAASGFTFSLYDMNWVRQAPGKGLEWVSGISPSGGQTMYADSVKGRFTISRDNSKNTLYLQMNSLRAEDTAVYYCARQPMISAFDIWGQGTMVTVSS VL: DIQMTQSPSSLSASVGDRVTITCRASQTIDNYLHWYQQKPGKAPKVLIHDASSLQSGVPPRFSGSGSGTDFTLTISSLQPEDFATYYCQQSYDTPQYTFGQGTKLEIK	6.4 T/B
M28-F07 (Fab, V domains shown, HC as printed runs into CH1) VH: EVQLLESGGGLVQPGGSLRLSCAASGFTFSDYTMYWVRQAPGKGLEWVSSIVPSGGHTLYADSVKGRFTISRDNSKNTLYLQMNSLRAEDTAVYYCAKDHLSSWYGGFFDYWGQGTLVTVSS VL: DIQMTQSPSSVSASVGDRVTITCRASQGISSWLAWYQQKPGKAPKLLIYATSGLQSGVPSRFSGSGSGTDFTLTISSLQPEDFATYYCQQAKSFPLTFGGGTRVEIK	33 T/B
